Experimental data from article doi:10.1101/2025.09.23.678148 (bioRxiv, 2025).
Blank lines part the entries; values can stand above or below the binder they belong to.

How the values were obtained:
[1] = target: T1, recombinant full-length mouse IRF1 (mouse, UniProt P15314 1-329); test: native gel or EMSA
T1 sequence (looked up): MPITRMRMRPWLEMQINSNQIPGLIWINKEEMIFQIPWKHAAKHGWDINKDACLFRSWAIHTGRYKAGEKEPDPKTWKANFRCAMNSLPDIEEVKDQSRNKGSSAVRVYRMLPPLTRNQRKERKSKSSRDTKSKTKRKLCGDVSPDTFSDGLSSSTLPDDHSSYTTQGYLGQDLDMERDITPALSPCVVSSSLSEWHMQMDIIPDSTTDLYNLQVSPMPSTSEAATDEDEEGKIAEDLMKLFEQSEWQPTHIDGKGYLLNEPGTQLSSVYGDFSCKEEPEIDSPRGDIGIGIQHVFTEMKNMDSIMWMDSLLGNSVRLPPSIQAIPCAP

[2] = target: T2, IRF2 (mouse, UniProt P23906 1-349); test: EMSA
T2 sequence: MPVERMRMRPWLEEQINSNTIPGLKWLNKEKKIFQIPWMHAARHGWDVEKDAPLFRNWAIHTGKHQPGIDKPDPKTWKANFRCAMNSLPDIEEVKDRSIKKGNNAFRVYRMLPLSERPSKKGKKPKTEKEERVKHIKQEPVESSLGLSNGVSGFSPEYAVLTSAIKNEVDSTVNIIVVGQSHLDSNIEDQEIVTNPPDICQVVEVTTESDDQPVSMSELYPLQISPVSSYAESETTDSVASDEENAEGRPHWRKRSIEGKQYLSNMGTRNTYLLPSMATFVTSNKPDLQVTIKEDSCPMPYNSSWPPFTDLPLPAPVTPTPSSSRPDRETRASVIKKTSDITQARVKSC

[3] = target: T3, IRF1 (mouse, UniProt P15314 1-329); test: EMSA
T3 sequence: T1 sequence (looked up)

[4] = target: IRF1;SPOP (mouse;mouse, UniProt P15314;Q6ZWS8 1-329;28-329, |); test: EMSA
[5] = target: T4, IRF1;IRF2 (mouse;mouse, UniProt P15314;P23906 1-329;1-349, |); test: EMSA
T4 sequence 1: T1 sequence (looked up)
T4 sequence 2: T2 sequence

[6] = target: SPOP (mouse, UniProt Q6ZWS8 28-329); test: EMSA

binding result [1]: binds
B1: recombinant mouse SPOP (aa28-329) (domain or fragment, UniProt Q6ZWS8 28-329, looked up)
chain: KVVKFSYMWTINNFSFCREEMGEVIKSSTFSSGANDKLKWCLRVNPKGLDEESKDYLSLYLLLVSCPKSEVRAKFKFSILNAKGEETKAMESQRAYRFVQGKDWGFKKFIRRDFLLDEANGLLPDDKLTLFCEVSVVQDSVNISGQNTMNMVKVPECRLADELGGLWENSRFTDCCLCVAGQEFQAHKAILAARSPVFSAMFEHEMEESKKNRVEINDVEPEVFKEMMCFIYTGKAPNLDKMADDLLAAADKYALERLKVMCEDALCSNLSVENAAEILILADLHSADQLKTQAVDFINYHA

B2: Gbp2 probe, GAAA core and 5'-flanking AA mutated (dsDNA)
DNA 1: CAGTGCCCGTGCCCCTACCCAGCAC
DNA 2: GTGCTGGGTAGGGGCACGGGCACTG
binding result [2]: no binding | binding result [3]: no binding

B3: Gbp2 promoter probe, single IRF motif (dsDNA)
DNA 1: CAGTGAAAGTGAAACTAAAAAGCAC
DNA 2: GTGCTTTTTAGTTTCACTTTCACTG
binding result [2]: binds | binding result [3]: binds | binding result [4]: binds | binding result [5]: binds | binding result [6]: no binding

B4: DNA with a single AAA core (dsDNA)
DNA 1: CAGTGAAAGTGCCCCTACCCAGCAC
DNA 2: GTGCTGGGTAGGGGCACTTTCACTG
binding result [3]: no binding
